56 substances from US10227388B2, “Peptides and combination of peptides for use in immunotherapy against non-small cell lung cancer and other cancers” (immatics biotechnologies GmbH, priority 2015, dated 2019) can be followed below.

The target in this assay is HLA-A*02:01 (Homo sapiens, UniProt P04439, D140Y/D185E/D98H/E176V/E277Q/G131W/G231S/I119V/I121R/I166T/I218V/L300P/L318F/N151K/N90K/P208A/P217A/Q86G/Q94H/R138H/R169H/T345S). The assay can be described thus: MHC binding assay (UV-ligand exchange, ELISA, peptide exchange yield). As to conditions: binding of HLA-class I restricted peptides to HLA-A*02:01. The source says: Candidate peptides for T cell based therapies according to the present invention were further tested for their MHC binding capacity (affinity). The individual peptide-MHC complexes were produced by UV-ligand exchange, where a UV-sensitive peptide is cleaved upon UV-irradiation, and exchanged with the peptide of interest as analyzed. Only peptide candidates that can effectively bind and stabilize the peptide-receptive MHC molecules prevent dissociation of the MHC complexes. To determine the yield of the exchange reaction, an ELISA was performed based on the detection of the light chain ([…]) of stabilized MHC complexes. The assay was performed as generally described in Rodenko et al. (Rodenko et al., 2006).
96 well MAXISorp plates (NUNC) were coated over night with 2-ug/ml streptavidin in PBS at room temperature, washed 4× and blocked for 1 h at 37° C. in 2% BSA containing blocking buffer. […] Peptide-MHC monomers of the UV-exchange reaction were diluted 100 fold in blocking buffer. Samples were incubated for 1 h at 37° C., washed four times, incubated with 2-ug/ml HRP conjugated anti-β2m for 1 h at 37° C., washed again and detected with TMB solution that is stopped with […]. Absorption was measured at 450 nm. Candidate peptides that show a high exchange yield (preferably higher than 50%, most preferred higher than 75%) are generally preferred for a generation and production of antibodies or fragments thereof, and/or T cell receptors or fragments thereof, as they show sufficient avidity to the MHC molecules and prevent dissociation of the MHC complexes.

With “577 (VMFEDGVLMRL; listed as Homo sapiens) [compound 577]”, the “Peptide exchange (MHC class I binding score, peptide exchange yield)” value (from here on “Peptide exchange”) is “″+++″ (≥50% = +++)”.

As to “394 (LLAVIGGLVYL; listed as Homo sapiens) [compound 394]”, the “Peptide exchange” value was “″+++″ (≥50% = +++)”. In the case of “207 (GLTSTNAEV; listed as Homo sapiens) [compound 207]”, the “Peptide exchange” value is given as “″++″ (≥20% = ++)”. As for “31 (YLAPELFVNV; listed as Homo sapiens) [compound 31]”, the entry is “″++″ (≥20% = ++)”.

Turning to “407 (YLMDLINFL; listed as Homo sapiens) [compound 407]”, the “Peptide exchange” value is “″+++″ (≥50% = +++)”. The result for “27 (ILADIVISA; listed as Homo sapiens) [compound 27]” reads “″+++″ (≥50% = +++)”; that for “198 (KTINKVPTV; listed as Homo sapiens) [compound 198]”, “″+++″ (≥50% = +++)”; that for “440 (ALADGVTMQV; listed as Homo sapiens) [compound 440]”, “″++″ (≥20% = ++)”. The result for “513 (SLWPSPEQL; listed as Homo sapiens) [compound 513]” reads “″++″ (≥20% = ++)”; that for “521 (MLLTKLPTI; listed as Homo sapiens) [compound 521]”, “″+++″ (≥50% = +++)”. The result for “491 (GLNDRSDAV; listed as Homo sapiens) [compound 491]” reads “″++″ (≥20% = ++)”; that for “103 (TLAEEVVAL; listed as Homo sapiens) [compound 103]”, “″+++″ (≥50% = +++)”; that for “475 (LLLNEEALAQI; listed as Homo sapiens) [compound 475]”, “″+++″ (≥50% = +++)”. With “583 (ILANDGVLLAA; listed as Homo sapiens) [compound 583]”, the “Peptide exchange” value is listed as “″+++″ (≥50% = +++)”. The result for “378 (ALGYFVPYV; listed as Homo sapiens) [compound 378]” reads “″+++″ (≥50% = +++)”; that for “155 (RVANLHFPSV; listed as Homo sapiens) [compound 155]”, “″+++″ (≥50% = +++)”.

In the case of “158 (KLFDVDEDGYI; listed as Homo sapiens) [compound 158]”, the “Peptide exchange” value is on record as “″+++″ (≥50% = +++)”. As for “505 (SLAPGDVVRQV; listed as Homo sapiens) [compound 505]”, the entry is “″++″ (≥20% = ++)”; as for “53 (KMIETDILQKV; listed as Homo sapiens) [compound 53]”, “″++++″ (≥75% = ++++)”; as for “325 (FIMPATVADATAV; listed as Homo sapiens) [compound 325]”, “″+++″ (≥50% = +++)”.

As for “243 (LLLNELPSV; listed as Homo sapiens) [compound 243]”, the “Peptide exchange” value is listed as “″+++″ (≥50% = +++)”.

With “390 (ALFMKQIYL; listed as Homo sapiens) [compound 390]”, the “Peptide exchange” value is listed as “″+++″ (≥50% = +++)”. The result for “280 (VLPDPEVLEAV; listed as Homo sapiens) [compound 280]” reads “″+++″ (≥50% = +++)”; that for “111 (YVWGFYPAEV; listed as Homo sapiens) [compound 111]”, “″+++″ (≥50% = +++)”; that for “439 (YLLQEIYGI; listed as Homo sapiens) [compound 439]”, “″+++″ (≥50% = +++)”. Consider “83 (ILAPTVMMI; listed as Homo sapiens) [compound 83]”, for which the “Peptide exchange” value is “″+++″ (≥50% = +++)”. On to “34 (ILVEADSLWVV; listed as Homo sapiens) [compound 34]”, for which the “Peptide exchange” value is recorded as “″+++″ (≥50% = +++)”. As for “332 (YLISELEAA; listed as Homo sapiens) [compound 332]”, the entry is “″+++″ (≥50% = +++)”; as for “233 (VLSETLYEL; listed as Homo sapiens) [compound 233]”, “″++″ (≥20% = ++)”. Regarding “600 (ALAAPDIVPAL; listed as Homo sapiens) [compound 600]”, the “Peptide exchange” value was “″+++″ (≥50% = +++)”. As for “152 (ILFEDIFDV; listed as Homo sapiens) [compound 152]”, the entry is “″+++″ (≥50% = +++)”; as for “82 (FLSSVTYNL; listed as Homo sapiens) [compound 82]”, “″+++″ (≥50% = +++)”; as for “101 (ILVGGGALATV; listed as Homo sapiens) [compound 101]”, “″+++″ (≥50% = +++)”. The result for “336 (ILLTAIVQV; listed as Homo sapiens) [compound 336]” reads “″+++″ (≥50% = +++)”; that for “543 (GLLPTPITQQASL; listed as Homo sapiens) [compound 543]”, “″+++″ (≥50% = +++)”. Consider “66 (FLDENIGGVAV; listed as Homo sapiens) [compound 66]”, for which the “Peptide exchange” value is “″+++″ (≥50% = +++)”. As to “281 (ILRESTEEL; listed as Homo sapiens) [compound 281]”, the “Peptide exchange” value is listed as “″+++″ (≥50% = +++)”. As for “273 (NLFQSVREV; listed as Homo sapiens) [compound 273]”, the entry is “″++″ (≥20% = ++)”; as for “408 (VLDDSIYLV; listed as Homo sapiens) [compound 408]”, “″++″ (≥20% = ++)”; as for “181 (LLWAGTAFQV; listed as Homo sapiens) [compound 181]”, “″+++″ (≥50% = +++)”. The result for “524 (ALIENLTHQI; listed as Homo sapiens) [compound 524]” reads “″++″ (≥20% = ++)”; that for “576 (ILLNNSGQIKL; listed as Homo sapiens) [compound 576]”, “″++++″ (≥75% = ++++)”. As for “610 (LLAPTPYIIGV; listed as Homo sapiens) [compound 610]”, the entry is “″+++″ (≥50% = +++)”; as for “564 (TVTNAVVTV; listed as Homo sapiens) [compound 564]”, “″+++″ (≥50% = +++)”.

For “267 (ALQDFLLSV; listed as Homo sapiens) [compound 267]”, the “Peptide exchange” value is “″+++″ (≥50% = +++)”. The result for “546 (VMIAGKVAVV; listed as Homo sapiens) [compound 546]” reads “″+++″ (≥50% = +++)”; that for “126 (VLAYFLPEA; listed as Homo sapiens) [compound 126]”, “″++++″ (≥75% = ++++)”. As for “74 (ALLDPEVLSIFV; listed as Homo sapiens) [compound 74]”, the entry is “″+++″ (≥50% = +++)”.

With “194 (ALPLFVITV; listed as Homo sapiens) [compound 194]”, the “Peptide exchange” value was “″+++″ (≥50% = +++)”. Turning to “497 (GLLEKLTAI; listed as Homo sapiens) [compound 497]”, the “Peptide exchange” value is given as “″+++″ (≥50% = +++)”. On to “377 (FLLDSSASV; listed as Homo sapiens) [compound 377]”, for which the “Peptide exchange” value was “″++″ (≥20% = ++)”. The result for “179 (KVLNELYTV; listed as Homo sapiens) [compound 179]” reads “″+++″ (≥50% = +++)”; that for “530 (VMYADIGGMDI; listed as Homo sapiens) [compound 530]”, “″+++″ (≥50% = +++)”. As for “279 (ALWGGTQPLL; listed as Homo sapiens) [compound 279]”, the entry is “″++″ (≥20% = ++)”; as for “405 (ALYDVFLEV; listed as Homo sapiens) [compound 405]”, “″++″ (≥20% = ++)”; as for “208 (KISPVTFSV; listed as Homo sapiens) [compound 208]”, “″+++″ (≥50% = +++)”.
